This note sets out measurements from patent US20200093883A1 (XIGEN INFLAMMATION, published 2020).

This assay addresses c-Jun N-terminal kinase (JNK) in primary mouse cortical neurons (mouse). Nature of the assay: cell-based or functional assay.

Square brackets hold non-standard residues; d marks the D form. Ends that are not written are not given here.

B1: JNK inhibitor according to SEQ ID NO: 172 ("XG-104") (peptide)
peptide: [dR]KKR[dR]QRR[dR]RP[dK]RP[dA]TLNL[dF]-NH2
modifications: N-terminus assumed
SMILES: CC(C)C[C@H](NC(=O)[C@H](CC(N)=O)NC(=O)[C@H](CC(C)C)NC(=O)[C@@H](NC(=O)[C@@H](C)NC(=O)[C@@H]1CCCN1C(=O)[C@H](CCCNC(=N)N)NC(=O)[C@@H](CCCCN)NC(=O)[C@@H]1CCCN1C(=O)[C@H](CCCNC(=N)N)NC(=O)[C@@H](CCCNC(=N)N)NC(=O)[C@H](CCCNC(=N)N)NC(=O)[C@H](CCCNC(=N)N)NC(=O)[C@H](CCC(N)=O)NC(=O)[C@@H](CCCNC(=N)N)NC(=O)[C@H](CCCNC(=N)N)NC(=O)[C@H](CCCCN)NC(=O)[C@H](CCCCN)NC(=O)[C@H](N)CCCNC(=N)N)[C@@H](C)O)C(=O)N[C@H](Cc1ccccc1)C(N)=O
For B1, the “JNK activity (ratio pJNK/JNK, immunoblot), neurons exposed to 2 µM Aβ42, pre-treatment with 5 µM XG-104: decrease” value was found to be 29.2%; the “JNK activity (ratio pJNK/JNK, immunoblot), neurons exposed to 2 µM Aβ42, pre-treatment with 10 µM XG-104: decrease” value was 60%; the “JNK activity (ratio pJNK/JNK, immunoblot), neurons exposed to 25 µM Aβ42, pre-treatment with 5 µM XG-104: decrease” value turned out to be 17.5%; the “JNK activity (ratio pJNK/JNK, immunoblot), neurons exposed to 25 µM Aβ42, pre-treatment with 10 µM XG-104: decrease” value turned out to be 59.6%.
